target: biotinylated IL-10 (Homo sapiens (Human)) (UniProt P22301); assay: phage display biopanning, 3 rounds on biotinylated IL-10 on streptavidin plates; clones sequenced
Sequence (P22301 19-178 limits assumed, form in doubt): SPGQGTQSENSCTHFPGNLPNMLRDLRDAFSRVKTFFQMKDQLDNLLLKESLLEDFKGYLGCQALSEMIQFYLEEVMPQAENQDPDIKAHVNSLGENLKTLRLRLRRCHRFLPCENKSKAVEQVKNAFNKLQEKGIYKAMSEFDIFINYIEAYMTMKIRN

Binder	No. of colonies
ARWMHRHHGWSDRHR [peptide P2 (SEQ ID NO: 2)]	29 colonies
RKLRPHWLHFHPVAV [peptide P1 (SEQ ID NO: 1)]	25 colonies

target: T1, human IL-10 (hIL-10) (human, UniProt P22301 19-178); assay: SPR (BIAcore X), human IL-10 immobilized on CM5 chip, peptide 10 µM injected
T1 construct: also called human recombinant protein IL-10 (R & D Systems, cat No. 217-IL/CF); hIL-10 (e-Bioscience)
T1 sequence (P22301 19-178 limits assumed): as the sequence (P22301 19-178 limits assumed, form in doubt) above
Method: To perform this assay, the Biosensor BIAcore X (BIAcore, AB, Uppsala, Sweden) was used. Briefly, human recombinant protein IL-10 (R & D Systems, cat No. 217-IL/CF) was covalently immobilized on the surface of flow cell 2 (FC2) of a CM5 chip (BIAcore), as described in De Crescenzo et al. 2001 (JBC, Vol 276; 29632-29643). Flow cell 1 (FC1), on the surface of which IL-10 is not immobilized, was used as a reference flow cell. The peptide solutions (10 μM) were injected at least twice in 10 mM Hepes buffer, pH 7.4, 150 mM NaCl, 0.005% Tween 20 (Polyoxyethylene Sorbitan Monolaurate) at a flow of 30 μl/min. The binding curves were processed by means of subtracting the response in FC1 from that obtained in FC2. The response in equilibrium was compared between the test peptide and an irrelevant control peptide of the same length. The control peptide used was peptide P301 (SEQ ID NO: 54) (derived from the HIV-1 coat, gp120 (301-315): […]). Each response was multiplied by a mass correction factor: MW(PX)/MW(P), where MW(PX) is the molecular weight of the test peptide P and MW(P) is the molecular weight of the control peptide (P301).

Binder	binding result
CHRCFHFRRHPVA (Amino acids 1-13 of P9) [peptide P9 (1-13) (SEQ ID NO: 47)]	binds
SHRCFHFRRHPVA (Amino acids 1-13 of P9 with Cys 1 replaced by Ser) [peptide P9 (1-13; 1 Ser) (SEQ ID NO: 53)]	binds
RCFHFRRHPVAV (Amino acids 3-14 of P9) [peptide P9 (3-14) (SEQ ID NO: 50)]	binds
CHRCFHFRRHPVAV (Amino acids 1-14 of P9) [peptide P9 (1-14) (SEQ ID NO: 46)]	binds
HRCFHFRRHPVA (Amino acids 2-13 of P9) [peptide P9 (2-13) (SEQ ID NO: 49)]	binds
HRCFHFRRHPVAV (Amino acids 2-14 of P9) [peptide P9 (2-14) (SEQ ID NO: 48)]	binds
CHRCFHFRRHPVAAF (P9 with Val 14 replaced by Ala) [peptide P9 (14 Ala) (SEQ ID NO: 52)]	binds
CHRCFHFRRHPVAVA (P9 with Phe 15 replaced by Ala) [peptide P9 (15 Ala) (SEQ ID NO: 51)]	binds
HRCFHFRRHPVAVF (Amino acids 2-15 of P9) [peptide P9 (2-15) (SEQ ID NO: 45)]	binds

— US20130064790A1 (PROYECTO DE BIOMEDICINA CIMA S L, published 2013)
